Tests used:
Assay in all cases: IEDB peptide-MHC binding, purified MHC/competitive/radioactivity; ≥ and ≤ were set here for values at or beyond the usual limits of such assays
Details in all cases: source organism: Bordetella pertussis
HLA-A*02:01 = molecular target: HLA-A*02:01
HLA-B*53:01 = molecular target: HLA-B*53:01
HLA-B*44:03 = molecular target: HLA-B*44:03
HLA-B*35:01 = molecular target: HLA-B*35:01
HLA-B*57:01 = molecular target: HLA-B*57:01
HLA-B*07:02 = molecular target: HLA-B*07:02

In the case of SLADISLGA, the IC50 (HLA-A*02:01) is reported as 0.0911 µM.
In the case of YIWGLYPTY, the IC50 (HLA-B*53:01) is reported as 48.1 µM.
For AELQTYLRQ, the IC50 (HLA-B*44:03) was 1.83 µM.
In the case of ALILAASPV, the IC50 (HLA-A*02:01) is reported as 26.3 µM.
With LPEPVKLTL the IC50 (HLA-B*35:01) was 69.9 µM.
With LAAQVTQRG the IC50 (HLA-B*57:01) was 40.2 µM.
LPKPVTVKL was tested, and the IC50 (HLA-B*07:02) was 2.66 µM.
AMTHLSPAL showed an IC50 (HLA-A*02:01) of 0.162 µM.
Work on AEKVTTPAV yielded an IC50 (HLA-B*44:03) of 39.3 µM.
AVAAPAVGA showed an IC50 (HLA-A*02:01) of at least 78.1 µM.
LMGPLQVNA gave an IC50 (HLA-A*02:01) of 0.629 µM.
AMQGAVVHL showed an IC50 (HLA-A*02:01) of 2.65 µM and an IC50 (HLA-B*44:03) of 37.1 µM.
With LEAGRRFTH the IC50 (HLA-B*44:03) was 44.2 µM.
Work on KTNMVVTSV yielded an IC50 (HLA-B*57:01) of 4.37 µM.
ATYIADSGF showed an IC50 (HLA-B*57:01) of 4.17 µM.

Reference: the Immune Epitope Database (IEDB)
